These results are taken from patent US20210171647A1 (WUXI BIOLOGICS SHANGHAI, published 2021).

Substitutions are numbered along the chain they refer to.

Common to all, as to test: ELISA, antibody coated, OX40-ECD.His mutant supernatant; relative to silent alanine substitutions;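 also: captured OX40 mutant protein detected with HRP-labelled anti-His antibody, absorbance read-out, scaled to the mean signal of control mutants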
The target in one assay is T1, human OX40-ECD.His D163A (human, UniProt P43489 29-214).
T1 construct: extracellular domain; not shown: C-terminal His-tag
T1 sequence (looked up): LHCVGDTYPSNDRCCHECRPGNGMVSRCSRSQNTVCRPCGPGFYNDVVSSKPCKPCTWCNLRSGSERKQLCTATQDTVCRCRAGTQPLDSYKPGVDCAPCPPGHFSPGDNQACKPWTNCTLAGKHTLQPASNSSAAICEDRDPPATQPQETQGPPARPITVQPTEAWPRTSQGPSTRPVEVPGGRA

A further assay addresses T2, human OX40-ECD.His D40A (human, UniProt P43489 29-214).
T2 construct: extracellular domain; not shown: C-terminal His-tag
T2 sequence (looked up): T1 sequence (looked up) with D12A, A135D

The target in the next assay is T3, human OX40-ECD.His K142A (human, UniProt P43489 29-214).
T3 construct: extracellular domain; not shown: C-terminal His-tag
T3 sequence (looked up): T1 sequence (looked up) with K114A, A135D

In a further assay the target is T4, human OX40-ECD.His T85A (human, UniProt P43489 29-214).
T4 construct: extracellular domain; not shown: C-terminal His-tag
T4 sequence (looked up): T1 sequence (looked up) with T57A, A135D

Another assay addresses T5, human OX40-ECD.His G151A (human, UniProt P43489 29-214).
T5 construct: extracellular domain; not shown: C-terminal His-tag
T5 sequence (looked up): T1 sequence (looked up) with G123A, A135D

A further assay deals with T6, human OX40-ECD.His V123A (human, UniProt P43489 29-214).
T6 construct: extracellular domain; not shown: C-terminal His-tag
T6 sequence (looked up): T1 sequence (looked up) with V95A, A135D

A further assay deals with T7, human OX40-ECD.His T100A (human, UniProt P43489 29-214).
T7 construct: extracellular domain; not shown: C-terminal His-tag
T7 sequence (looked up): T1 sequence (looked up) with T72A, A135D

The next assay concerns the target T8, human OX40-ECD.His T35A (human, UniProt P43489 29-214).
T8 construct: extracellular domain; not shown: C-terminal His-tag
T8 sequence (looked up): T1 sequence (looked up) with T7A, A135D

For a further assay, the target named is T9, human OX40-ECD.His H44A (human, UniProt P43489 29-214).
T9 construct: extracellular domain; not shown: C-terminal His-tag
T9 sequence (looked up): T1 sequence (looked up) with H16A, A135D

The target of another assay is T10, human OX40-ECD.His S38A (human, UniProt P43489 29-214).
T10 construct: extracellular domain; not shown: C-terminal His-tag
T10 sequence (looked up): T1 sequence (looked up) with S10A, A135D

Method for human OX40-ECD.His D163A: (§1) After interacting with the supernatant that contains quantified OX40 mutants or human OX40-ECD.His protein, HRP conjugated anti-His antibody (1:5000, GenScript-A00612, CHN) was added as detection antibody. Absorbance was normalized according to the average of control mutants.
Method for human OX40-ECD.His D40A: as §1
Method for human OX40-ECD.His G151A: as §1
Method for human OX40-ECD.His H44A: as §1
Method for human OX40-ECD.His K142A: as §1
Method for human OX40-ECD.His S38A: as §1
Method for human OX40-ECD.His T100A: as §1
Method for human OX40-ECD.His T35A: as §1
Method for human OX40-ECD.His T85A: as §1
Method for human OX40-ECD.His V123A: as §1

B1: 1.134.9-u1-IgG1L (antibody, V domains shown)
VH: QVQLQESGPGLVKPSGTLSLTCAVSGGSISSYNWWSWVRQPPGKGLEWIGEIYHGGNTNYNPSLKSRVTMSVDNSKNQFSLKLSSVTAADTAVYYCARAPGDWGGSPYFDFWGQGTLVTVSS
VL: SSELTQDPAVSVALGQTVRITCQGDNLRTYYASWYQQKPGQAPILLIYGRNKRPSGIPDRFSGSSSGNTASLTITGAQAEDEAAYYCNSRDSSGNPVVFGGGTKLTVL
notes: fully human IgG1, lambda
With B1, the “Fold Change” value with human OX40-ECD.His D163A turned out to be 0.318; with human OX40-ECD.His D40A, 0.994; in the assay with human OX40-ECD.His K142A it was 0.921; with human OX40-ECD.His T85A it was 0.808; in the assay with human OX40-ECD.His G151A, 0.742; with human OX40-ECD.His V123A, 1. Also, the “Fold Change” value with human OX40-ECD.His T100A came out at 0.557; with human OX40-ECD.His T35A, 1.02; with human OX40-ECD.His H44A, 1; in the assay with human OX40-ECD.His S38A, 0.997.
